Data reported in US6770631 (ADPROTECH, dated 2004).

B1: C3d monomer produced in baculovirus/Sf9 cells (murine C3d with C-terminal Glu-Glu-Phe tag) (ligand)
chain: not shown
notes: The end residue 330 was counted from the printed appendix (33 rows of 10 residues); Measured mass 34279 Da; also called baculovirus/Sf9 C3d; C3d1
B2: C3d expressed in COS cells (ligand)
chain: not shown
notes: domain: C3d; Comparator material; also called COS cell produced C3d

Legend:
[1] = molecular target: T1, complement receptor-2 (CR2) on the surface of Raji cells (UniProt P20023 21-1033, limits assumed); assay: competitive binding on Raji cells against 1 nM 125I-HEL-C3d, 1 h at 4 C, cell-pellet radioactivity
T1 construct: whole, on cells; also called CD21; complement receptor type 2
T1 sequence (looked up): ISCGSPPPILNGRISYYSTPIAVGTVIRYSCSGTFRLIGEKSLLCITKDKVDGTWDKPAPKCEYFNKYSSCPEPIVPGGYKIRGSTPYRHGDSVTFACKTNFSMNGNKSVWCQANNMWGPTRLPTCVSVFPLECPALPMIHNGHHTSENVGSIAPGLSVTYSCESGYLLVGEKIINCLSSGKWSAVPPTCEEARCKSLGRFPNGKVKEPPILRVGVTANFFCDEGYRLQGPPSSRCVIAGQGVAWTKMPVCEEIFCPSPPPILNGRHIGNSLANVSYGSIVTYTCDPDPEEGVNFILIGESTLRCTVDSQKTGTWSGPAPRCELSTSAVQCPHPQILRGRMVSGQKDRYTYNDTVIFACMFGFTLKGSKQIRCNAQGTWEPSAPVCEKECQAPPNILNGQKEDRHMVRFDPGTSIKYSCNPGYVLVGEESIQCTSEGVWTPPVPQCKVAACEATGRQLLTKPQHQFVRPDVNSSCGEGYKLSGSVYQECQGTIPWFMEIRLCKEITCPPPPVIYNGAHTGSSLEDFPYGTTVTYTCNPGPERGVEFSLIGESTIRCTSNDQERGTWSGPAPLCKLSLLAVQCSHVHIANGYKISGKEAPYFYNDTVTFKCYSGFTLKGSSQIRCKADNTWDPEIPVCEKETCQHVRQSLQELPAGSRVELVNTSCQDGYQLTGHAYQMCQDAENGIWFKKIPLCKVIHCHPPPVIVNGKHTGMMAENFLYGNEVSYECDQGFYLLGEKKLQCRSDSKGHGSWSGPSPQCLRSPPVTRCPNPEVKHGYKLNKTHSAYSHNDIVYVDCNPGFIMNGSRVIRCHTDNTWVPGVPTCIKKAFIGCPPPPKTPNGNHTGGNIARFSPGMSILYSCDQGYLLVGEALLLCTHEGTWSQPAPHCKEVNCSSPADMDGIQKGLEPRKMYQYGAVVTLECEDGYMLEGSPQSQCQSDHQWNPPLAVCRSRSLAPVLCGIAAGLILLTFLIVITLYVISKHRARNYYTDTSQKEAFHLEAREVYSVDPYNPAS
Experimental: The cells are then centrifuged through a dibutyl-diiso-octyl-phthalate cushion, and the amount of radioactivity associated with the pellet determined.
The binding was performed as described in General Methods Section (xvii) (a).

co-ligated CR2.IgG1 = molecular target: T2, co-ligated CR2.IgG1; assay: competitive ELISA: plate-bound C3d, 125 pM CR2.IgG1, soluble C3d titrated, HRP anti-mouse IgG1 detection
T2 construct: also called CR2; IgGl
Experimental: C3d is used to coat 96-well microtitre plates at 5 µg/ml in O. 1M NaHCO_3 by incubating overnight at 4° C. The plates are then blocked in 1% BSA 0.1% Tween-20 in PBS for 1 h at room temperature subsequently they are incubated with either 25 µl/well of C3d or from the C3d containing molecule under test in a dose response manner. To the wells is added 25 µl/well of a sub-saturating concentration of co-ligated CR2. […] The plates are then washed three times with PBS containing 0.1% (v/v) Tween-20. The amount of CR2 bound to the immobilised C3d is detected using a 1:3000 dilution of HRP-labeled goat anti-mouse-IgGl-antibody in PBS containing 0.1% (v/v)Tween-20 and incubated for 1 h at room temperature the wells were then washed as described above. The presence of HRP-antibody is detected using the TMB Peroxidase EIA Substrate Kit according to the manufacturer's instructions (Bio-Rad, UK).
The ELISA was performed as described in General Methods Section (xvii) (b). The monomer gave a $I50$ of 2 µM for the baculovirus/Sf9 material. A similar figure was obtained for the COS cell produced C3d.

Binder | IC50 [1] | IC50 (co-ligated CR2.IgG1)
B1 | 2500 nM | 2000 nM
B2 | 2500 nM | 
